From paper PMC6763467 (2019)

B1: E. coli MtlR fused with His6-tag (ecHisMtlR), wild type [E. coli] / E. coli histidine phosphocarrier protein HPr (dephosphorylated, untagged) [E. coli] (parent complex)
chain 1: MVDQAQDTLRPNNRLSDMQATMEQTQAFENRVLERLNAGKTVRSFLITAVELLTEAVNLLVLQVFRKDDYAVKYAVEPLLDGDGPLGDLSVRLKLIYGLGVINRQEYEDAELLMALREELNHDGNEYAFTDDEILGPFGELHCVAALPPPPQFEPADSSLYAMQIQRYQQAVRSTMVLSLTELISKISLKKAFQK
chain 2: not shown

Variants of: B1
Assay: His-tag pull-down (Talon metal affinity resin), SDS-PAGE band densitometry; 200 μg His-MtlR, 200 μg HPr, 20 μl EI-overproducing cell lysate, 2 mM MgCl2, 50 μl Talon resin; no PEP
chain 1 E140S showed a percent of parent of 68%. chain 1 E108S, chain 1 E140S was tested, and the percent of parent was 35%. chain 1 E108S gave a percent of parent of 65%.

Variants of: B1
Assay: His-tag pull-down (Talon metal affinity chromatography), SDS-PAGE band densitometry; 200 μg His-MtlR, 200 μg HPr; 20 mM Tris-HCl (pH 7.5), 50 mM NaCl, 2 mM β-mercaptoethanol, 5% glycerol; wash 10 mM imidazole, elution 150 mM imidazole
In the case of chain 1 E140S, the percent of parent is reported as 67%. chain 1 E108S was tested, and the percent of parent was 76%. Work on chain 1 L112W yielded a percent of parent of 95%. In the case of chain 1 A115W, the percent of parent is reported as 45%. With chain 1 L112A the percent of parent was 47%.
